Experimental data taken from patent US20240002514A1 (IGM BIOSCIENCES, published 2024).
Changes are numbered by the printed parent chain.

T1: recombinant human PD-L2 Fc chimera protein (Sino Biological, cat #10292-H02H) (human, UniProt Q9BQ51 20-219)
T1 construct: Fc part of the bought chimera not given
T1 sequence (looked up): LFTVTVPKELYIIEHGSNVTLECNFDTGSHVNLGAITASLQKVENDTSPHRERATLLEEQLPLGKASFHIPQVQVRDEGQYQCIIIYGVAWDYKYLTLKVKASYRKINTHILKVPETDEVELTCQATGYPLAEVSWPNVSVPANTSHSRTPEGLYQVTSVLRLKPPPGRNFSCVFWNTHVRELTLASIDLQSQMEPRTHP

B1: 3C5-2G12 IgM antibody (antibody)
heavy: QVQLKESGPGLVAPSQSLSITCTVSGFSLTSYDISWVRQPPGKGLEWLGVIWTGVGTNYNSAFMSRLSISKDNSKSQVFLKMNSLQTDDTAMYYCVRDPYYYGMDYWGQGTSVTVSSGSASAPTLFPLVSCENSPSDTSSVAVGCLAQDFLPDSITFSWKYKNNSDISSTRGFPSVLRGGKYAATSQVLLPSKDVMQGTDEHVVCKVQHPNGNKEKNVPLPVIAELPPKVSVFVPPRDGFFGNPRKSKLICQATGFSPRQIQVSWLREGKQVGSGVTTDQVQAEAKESGPTTYKVTSTLTIKESDWLSQSMFTCRVDHRGLTFQQNASSMCVPDQDTAIRVFAIPPSFASIFLTKSTKLTCLVTDLTTYDSVTISWTRQNGEAVKTHTNISESHPNATFSAVGEASICEDDWNSGERFTCTVTHTDLPSPLKQTISRPKGVALHRPDVYLLPPAREQLNLRESATITCLVTGFSPADVFVQWMQRGQPLSPEKYVTSAPMPEPQAPGRYFAHSILTVSEEEWNTGETYTCVVAHEALPNRVTERTVDKSTGKPTLYNVSLVMSDTAGTCY
light: DIQMNQSPSSLSASLGDTITITCRASQDISIWLSWYQQKPGNIPELLIYKASNLHTGVPPRFSGSGSGTDFTLTISSLQPEDIATYYCLQSQSFPRTFGGGTKLEIKRTVAAPSVFIFPPSDEQLKSGTASVVCLLNNFYPREAKVQWKVDNALQSGNSQESVTEQDSKDSTYSLSSTLTLSKADYEKHKVYACEVTHQGLSSPVTKSFNRGEC
B2: 3C5-2G12 IgM + J antibody (antibody)
heavy: B1 heavy
light: B1 light
chain: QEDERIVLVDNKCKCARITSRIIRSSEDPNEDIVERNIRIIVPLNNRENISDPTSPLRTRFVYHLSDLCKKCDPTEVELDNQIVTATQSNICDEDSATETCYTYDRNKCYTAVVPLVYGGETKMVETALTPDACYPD
notes: also called 3C5.2G12 IgM+wtJ; 3C5.2G12 IgM+J chain
B3: h3C5H3-h3C5L2 (humanized 3C5, IgG) (antibody, V domains shown)
VH: QVQLQESGPGLVKPSETLSITCTVSGFSLTSYDISWVRQPPGKGLEWLGVIWTGVGTNYNPSFKSRLTISKDTSKNQVSLKMSSLTAADTAVYYCVRDPYYYGMDYWGQGTLVTVSS
VL: DIQMTQSPSSLSASVGDRITITCRASQDISIWLSWYQQKPGKAPKLLIYKASNLHTGVPSRFSGSGSGTDFTLTISSLQPEDFATYYCLQSQSFPRTFGQGTKLEIKR
B4: h3C5H4-h3C5L2 (humanized 3C5, IgG) (antibody, V domains shown)
VH: B3 VH with V37I, T73N
VL: B3 VL
B5: 3C5-2G12 IgG1 antibody (antibody)
heavy: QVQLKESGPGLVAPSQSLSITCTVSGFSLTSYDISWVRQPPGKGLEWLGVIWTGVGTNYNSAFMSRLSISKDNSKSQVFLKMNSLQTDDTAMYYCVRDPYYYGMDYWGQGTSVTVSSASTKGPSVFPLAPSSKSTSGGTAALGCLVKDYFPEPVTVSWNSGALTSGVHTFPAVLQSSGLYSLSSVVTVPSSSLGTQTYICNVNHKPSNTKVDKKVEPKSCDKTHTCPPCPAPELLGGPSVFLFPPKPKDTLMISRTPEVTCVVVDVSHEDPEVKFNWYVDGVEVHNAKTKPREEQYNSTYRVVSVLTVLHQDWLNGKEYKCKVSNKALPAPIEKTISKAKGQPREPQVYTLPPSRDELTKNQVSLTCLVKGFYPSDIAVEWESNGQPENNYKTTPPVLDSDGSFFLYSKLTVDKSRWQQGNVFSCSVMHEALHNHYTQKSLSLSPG
light: B1 light
notes: also called 3C5 (IgG); 3C5 antibody (IgG format)
B6: h3C5H1-h3C5L1 (humanized 3C5, IgG) (antibody, V domains shown)
VH: B3 VH with I20L, V37I, L48I, F63L, L67V, K71V, V78F, M82L, L85V, V96A
VL: B3 VL with I19V
B7: h3C5H2-h3C5L2 (humanized 3C5, IgG) (antibody, V domains shown)
VH: B3 VH with I20L, V37I, F63L, L67V, V78F, M82L, L85V, V96A
VL: B3 VL

Columns and labels:
[1] = biological target: T2, recombinant cynomolgus monkey PD-L1 Fc chimera (Sino Biological, cat #90251-C02H) (cynomolgus monkey, UniProt G7PSE7 19-239); test: ELISA on directly coated cynomolgus PD-L1 Fc chimera (1 ug/mL), detection anti-human kappa light chain-HRP
T2 construct: also called Cyno PD-L1; Fc part of the bought chimera not given
T2 sequence (G7PSE7 entry or part of it C02H C02H): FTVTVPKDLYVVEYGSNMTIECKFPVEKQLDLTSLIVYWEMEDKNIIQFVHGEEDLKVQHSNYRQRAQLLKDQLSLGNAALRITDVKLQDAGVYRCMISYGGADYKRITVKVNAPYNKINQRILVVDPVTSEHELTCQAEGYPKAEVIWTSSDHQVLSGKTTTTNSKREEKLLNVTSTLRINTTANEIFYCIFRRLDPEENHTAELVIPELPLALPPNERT
Description: (§1) Recombinant human PD-L1 Fc chimera (Sino Biological, cat #10084-H02H), recombinant cynomolgous monkey PD-L1 Fc chimera (Sino Biological, cat #90251-C02H), recombinant mouse PD-L1 Fc chimera (Sino Biologicals, cat #50010-M02H) and recombinant human PD-L2 Fc chimera protein (Sino Biological, cat #10292-H02H) were coated directly onto the ELISA plates at 1 ug/mL by overnight incubation at 4° C. The plates were washed 3× with PBS 0.05% TWEEN® and dried by tapping several times on paper towels. All the plates were blocked with 200 uL of 1% milk for 1 hr at RT. […] Fifty μL of the diluted antibodies were added to the respective wells in all the plates. Positive control antibody (mouse anti-human PD-L1, 29E.2A3, (BioLegend, cat #329702) and its isotype control mouse IgG2b k (BioLegend, cat #400302) were serially diluted 3-fold in 1% milk starting at 3 ug/mL to 0.1 ng/mL and 50 uL of the titrated antibodies were added to their respective plates/wells. Similarly rat anti mouse PD-L1 (BioLegend, cat #124302) and rat IgG2b isotype (BioLegend, cat #400622), anti-human PD-L2 (BioLegend, cat #345502) with mouse IgG1 isotype (BioLegend, cat #4011402) were titrated as above and added to its respective plates/wells. The plates were incubated for 1 hr at RT. […] For the control wells, appropriate secondary antibodies, goat anti mouse HRP (Southern Biotech, cat #1033) and mouse anti rat HRP (Southern Biotech, cat #3070-05), were diluted and incubated as above. After repeating the wash and drying step, the plates were developed for 20-30 min with 50 uL TMB substrate (BD OPTEIA®, cat #555214). The reaction was stopped with 50 uL of 2N H2SO4 and absorbance at 450 nm was read on a SPECTRAMAX® Gemini™ spectrophotometer.

[2] = biological target: T1, recombinant human PD-L2 Fc chimera …; test: ELISA on directly coated human PD-L2 Fc chimera (1 ug/mL), detection anti-human kappa light chain-HRP
Description: as §1

[3] = biological target: T3, human PD-L1 expressed on the cell surface (CHO cells expressing human PD-L1; Promega CS187103 / 187103 cells) (human, UniProt Q9NZQ7 19-290); test: cell-based or functional assay
T3 sequence (Q9NZQ7 19-290): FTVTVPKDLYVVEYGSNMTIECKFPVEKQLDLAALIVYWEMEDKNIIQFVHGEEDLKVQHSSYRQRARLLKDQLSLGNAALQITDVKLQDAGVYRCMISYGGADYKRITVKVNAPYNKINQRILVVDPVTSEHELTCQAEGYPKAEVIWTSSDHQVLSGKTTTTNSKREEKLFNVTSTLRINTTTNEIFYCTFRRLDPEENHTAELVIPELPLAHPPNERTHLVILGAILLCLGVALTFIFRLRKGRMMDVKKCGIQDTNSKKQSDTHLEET

[4] = biological target: T3, human PD-L1 expressed on the cell …; test: cell-based or functional assay; remark: listed apart in the source
[5] = biological target: T4, recombinant mouse PD-L1 Fc chimera (Sino Biologicals, cat #50010-M02H) (mouse, UniProt Q9EP73 19-238); test: ELISA on directly coated mouse PD-L1 Fc chimera (1 ug/mL), detection anti-human kappa light chain-HRP
T4 construct: Fc part of the bought chimera not given
T4 sequence (Q9EP73 19-238, stated change not applied): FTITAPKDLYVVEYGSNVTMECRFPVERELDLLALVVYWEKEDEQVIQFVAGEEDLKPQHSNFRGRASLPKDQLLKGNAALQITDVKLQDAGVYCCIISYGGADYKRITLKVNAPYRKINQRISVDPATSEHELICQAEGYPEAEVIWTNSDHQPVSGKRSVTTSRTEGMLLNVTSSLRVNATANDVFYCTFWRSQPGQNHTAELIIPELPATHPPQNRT
Description: as §1

[6] = biological target: T3, human PD-L1 expressed on the cell …; test: cell-based or functional assay; remark: listed apart in the source
[7] = biological target: T3, human PD-L1 expressed on the cell …; test: flow cytometry competition on CHO cells expressing human PD-L1; cells pre-incubated with unlabeled antibody, then Alexa Fluor 647-labeled S70 (1 µg/mL)
Description: (§2) Antibody cross-blocking analysis was conducted by the following method. […] Fluorescent staining intensities were determined using the FACSCalibur™ system. Competition of by the identical antibody was a positive control while the lack of competition by the irrelevant antibody was a negative control.

[8] = biological target: T3, human PD-L1 expressed on the cell …; test: flow cytometry competition on CHO cells expressing human PD-L1; cells pre-incubated with unlabeled antibody, then Alexa Fluor 647-labeled 3C5 (1 µg/mL)
Description: as §2

EC50 (read off the curve) [1] [ng/mL]	binding result [2]	EC50, PD-1/PD-L1 blockade (PDL1 Blockade, luciferase signal) [3] [pM]	EC50 in the PD-1/PD-L1 blockade assay (luciferase reporter activity, 4 parameter curve fit) [4] [µM]	binding result [5]	EC50, PD-1/PD-L1 blockade (% PDL1 Blockade, NFAT-luciferase reporter) [6] [pM]	IC50 (read off the curve) [7] [µg/mL]	IC50 (read off the curve) [8] [µg/mL]	Binder
~7	no binding (tested: 3 ug/mL)	94	61	no binding (tested: 3 ug/mL)	61	–	–	B1
~8	no binding (tested: 3 ug/mL)	–	96	no binding (tested: 3 ug/mL)	96	–	–	B2
–	–	214	–	–	–	–	–	B3
–	–	296	–	–	–	–	–	B4
~6	no binding (tested: 3 ug/mL)	251	–	no binding (tested: 3 ug/mL)	210	~0.02	~0.01	B5
–	–	221	–	–	–	–	–	B6
–	–	381	–	–	–	–	–	B7
